The target in the test is HLA-A*02:01 (Homo sapiens, UniProt P04439, D140Y/D185E/D98H/E176V/E277Q/G131W/G231S/I119V/I121R/I166T/I218V/L300P/L318F/N151K/N90K/P208A/P217A/Q86G/Q94H/R138H/R169H/T345S). In words: MHC binding assay: UV-ligand exchange with beta2m ELISA (peptide exchange yield). The settings on record: binding to HLA-A*02:01. An excerpt:
Candidate peptides for T cell based therapies according to the present invention were further tested for their MHC binding capacity (affinity). The individual peptide-MHC complexes were produced by UV-ligand exchange, where a UV-sensitive peptide is cleaved upon UV-irradiation, and exchanged with the peptide of interest as analyzed. Only peptide candidates that can effectively bind and stabilize the peptide-receptive MHC molecules prevent dissociation of the MHC complexes. To determine the yield of the exchange reaction, an ELISA was performed based on the detection of the light chain ([…]) of stabilized MHC complexes. The assay was performed as generally described in Rodenko et al. (Rodenko et al., 2006).
96 well MAXISorp plates (NUNC) were coated over night with 2 ug/ml streptavidin in PBS at room temperature, washed 4× and blocked for 1 h at 37° C. in 2% BSA containing blocking buffer. […] Peptide-MHC monomers of the UV-exchange reaction were diluted 100 fold in blocking buffer. Samples were incubated for 1h at 37° C., washed four times, incubated with 2 ug/ml HRP conjugated anti-β2m for 1h at 37° C., washed again and detected with TMB solution that is stopped with […]. Absorption was measured at 450 nm. Candidate peptides that show a high exchange yield (preferably higher than 50%, most preferred higher than 75%) are generally preferred for a generation and production of antibodies or fragments thereof, and/or T cell receptors or fragments thereof, as they show sufficient avidity to the MHC molecules and prevent dissociation of the MHC complexes.

“152 (ILFEDIFDV; listed as Homo sapiens) [compound 152]”: the “Peptide exchange (MHC class I binding score, peptide exchange yield)” value (from here on “Peptide exchange”) is ““+++” (≥50 = +++)”.
The same measure for “85 (KMSELRVTL; listed as Homo sapiens) [compound 85]”: ““+++” (≥50 = +++)”; for “121 (GVVDPRAISVL; listed as Homo sapiens) [compound 121]”: ““++” (≥20% = ++)”; for “20 (RMIEYFIDV; listed as Homo sapiens) [compound 20]”: ““+++” (≥50 = +++)”.
As for “277 (LLPPLESLATV; listed as Homo sapiens) [compound 277]”, the “Peptide exchange” value is ““++” (≥20% = ++)”.
The same measure for “565 (ALQETPTSV; listed as Homo sapiens) [compound 565]”: ““++” (≥20% = ++)”; for “352 (SLLELLHIYV; listed as Homo sapiens) [compound 352]”: ““+++” (≥50 = +++)”; for “297 (VLADIELAQA; listed as Homo sapiens) [compound 297]”: ““+++” (≥50 = +++)”.
The same measure for “302 (ALLQEGEVYSA; listed as Homo sapiens) [compound 302]”: ““+++” (≥50 = +++)”; for “315 (YLQDVVEQA; listed as Homo sapiens) [compound 315]”: ““+++” (≥50 = +++)”.
In the case of “249 (LLDGFLVNV; listed as Homo sapiens) [compound 249]” it was ““+++” (≥50 = +++)”; in that of “273 (NLFQSVREV; listed as Homo sapiens) [compound 273]”, ““++” (≥20% = ++)”; in that of “146 (SLATAGDGLIEL; listed as Homo sapiens) [compound 146]”, ““++” (≥20% = ++)”.
Turning to “558 (GLLENIPRV; listed as Homo sapiens) [compound 558]”, the “Peptide exchange” value is listed as ““+++” (≥50 = +++)”.
In the case of “433 (AMLNEPWAV; listed as Homo sapiens) [compound 433]” it was ““+++” (≥50 = +++)”.
Regarding “531 (YTLPIASSIRL; listed as Homo sapiens) [compound 531]”, the “Peptide exchange” value was ““+++” (≥50 = +++)”.
The same measure for “492 (SLFDGFADGLGV; listed as Homo sapiens) [compound 492]”: ““+++” (≥50 = +++)”; for “390 (ALFMKQIYL; listed as Homo sapiens) [compound 390]”: ““+++” (≥50 = +++)”; for “460 (AMLEKNYKL; listed as Homo sapiens) [compound 460]”: ““++++” (≥75% = ++++)”.
In the case of “635 (SLDSTLHAV; listed as Homo sapiens) [compound 635]”, the “Peptide exchange” value is recorded as ““+++” (≥50 = +++)”.
For the substance “481 (GLIEDYEALL; listed as Homo sapiens) [compound 481]”, the “Peptide exchange” value is given as ““+++” (≥50 = +++)”.
In the case of “287 (FLNEFFLNV; listed as Homo sapiens) [compound 287]” it was ““+++” (≥50 = +++)”.
The same measure for “369 (GLFPEHLIDV; listed as Homo sapiens) [compound 369]”: ““+++” (≥50 = +++)”; for “448 (NLLETKLQL; listed as Homo sapiens) [compound 448]”: ““+++” (≥50 = +++)”; for “216 (NLWEDPYYL; listed as Homo sapiens) [compound 216]”: ““+++” (≥50 = +++)”.
Consider “324 (FLYDEIEAEV; listed as Homo sapiens) [compound 324]”, for which the “Peptide exchange” value is given as ““+++” (≥50 = +++)”.
In the case of “614 (LLLPDQPPYHL; listed as Homo sapiens) [compound 614]” it was ““+++” (≥50 = +++)”; in that of “157 (SLNDEVPEV; listed as Homo sapiens) [compound 157]”, ““++” (≥20% = ++)”.
The same measure for “500 (SLMEDQVLQL; listed as Homo sapiens) [compound 500]”: ““+++” (≥50 = +++)”; for “222 (NLIENVQRL; listed as Homo sapiens) [compound 222]”: ““++” (≥20% = ++)”.
In the case of “542 (RVWDISTVSSV; listed as Homo sapiens) [compound 542]” it was ““+++” (≥50 = +++)”; in that of “131 (FVPPVTVFPSL; listed as Homo sapiens) [compound 131]”, ““++” (≥20% = ++)”; in that of “610 (LLAPTPYIIGV; listed as Homo sapiens) [compound 610]”, ““+++” (≥50 = +++)”.
Regarding “559 (VTVPPGPSL; listed as Homo sapiens) [compound 559]”, the “Peptide exchange” value is listed as ““++” (≥20% = ++)”.
With “76 (ILIDSIYKV; listed as Homo sapiens) [compound 76]”, the “Peptide exchange” value is on record as ““+++” (≥50 = +++)”.
In the case of “235 (YLNDLHEVLL; listed as Homo sapiens) [compound 235]” it was ““++++” (≥75% = ++++)”; in that of “123 (NLWDLTDASVV; listed as Homo sapiens) [compound 123]”, ““+++” (≥50 = +++)”.
With “587 (VMNDRLYAI; listed as Homo sapiens) [compound 587]”, the “Peptide exchange” value is ““+++” (≥50 = +++)”.
The same measure for “491 (GLNDRSDAV; listed as Homo sapiens) [compound 491]”: ““++” (≥20% = ++)”; for “373 (SLLEDKGLAEV; listed as Homo sapiens) [compound 373]”: ““++” (≥20% = ++)”; for “201 (RLVDYLEGI; listed as Homo sapiens) [compound 201]”: ““+++” (≥50 = +++)”.
The same measure for “456 (LLIGHLERV; listed as Homo sapiens) [compound 456]”: ““+++” (≥50 = +++)”.
The same measure for “608 (SLLSVSHAL; listed as Homo sapiens) [compound 608]”: ““+++” (≥50 = +++)”; for “485 (NVPDSFNEV; listed as Homo sapiens) [compound 485]”: ““+++” (≥50 = +++)”; for “593 (GLPRFGIEMV; listed as Homo sapiens) [compound 593]”: ““+++” (≥50 = +++)”.
In the case of “567 (SLLPLDDIVRV; listed as Homo sapiens) [compound 567]”, the “Peptide exchange” value is recorded as ““+++” (≥50 = +++)”.
In the case of “278 (QLLDVVLTI; listed as Homo sapiens) [compound 278]” it was ““++” (≥20% = ++)”.
In the case of “468 (YLRSVGDGETV; listed as Homo sapiens) [compound 468]” it was ““+++” (≥50 = +++)”.
In the case of “598 (FLFPHSVLV; listed as Homo sapiens) [compound 598]” it was ““+++” (≥50 = +++)”.
“329 (FLVTLNNVEV; listed as Homo sapiens) [compound 329]”: the “Peptide exchange” value is on record as ““++++” (≥75% = ++++)”.
Consider “193 (QLLDADGFLNV; listed as Homo sapiens) [compound 193]”, for which the “Peptide exchange” value is ““+++” (≥50 = +++)”.
Take “539 (ALFDAQAQV; listed as Homo sapiens) [compound 539]”: the “Peptide exchange” value is reported as ““+++” (≥50 = +++)”.
The same measure for “361 (ALYELEGTTV; listed as Homo sapiens) [compound 361]”: ““+++” (≥50 = +++)”; for “355 (SIQQSIERLLV; listed as Homo sapiens) [compound 355]”: ““++” (≥20% = ++)”; for “562 (YLEELPEKLKL; listed as Homo sapiens) [compound 562]”: ““+++” (≥50 = +++)”.
As for “174 (ALAQYLITA; listed as Homo sapiens) [compound 174]”, the “Peptide exchange” value was ““+++” (≥50 = +++)”.
